System: PspGI restriction endonuclease (recombinant, pPspGIR70) (Pyrococcus species G-I-H)
Assay: cleavage_in_vitro
Details: approximate titer of crude extract on T7 DNA; NEBuffer III, 65 C 1 h

Q: With T7 DNA as the substance, how does the activity (units/g cells) read?
A: 20000

— patent publication US5849558
